Source: the DeepSol protein solubility set

Assay: soluble on expression in E. coli; label from the status in PepcDB or PDB records

| Sequence | soluble on expression in E. coli |
| --- | --- |
| MAHHHHHHMSAKLTVAVPRLASTVLLLARNPKHAISEQRPATGDNAARENDIHVLIMKRHGKARFMPGVYVFPGGGIEGSDYAAATHYLAEHYNLHLQDAADKKVTTQDFIESCGQPSAEEAELEAWACRVGALRELAEEAACVLRRDGCIFSEAEWIKWQKSRSDAGATGGASTDPVSSRPATLLPIYDLPAVSSLRPVARWVSPRQSRYRYDTYFYAALVNSALVSAEAHKAAHAPCSTQASSCDEANAGMGVRCIPPQELPLLEQASEVSELLWISPLEALRRHEDPSDVFSLAPPTYLLLHALSLQPSFASLAAAWAAAPASPEDPAAKPLGDLPHSSVLPCVEPLSTMTEDGRRIMKFVLPARYFHETGWSVAEGEYLFPGECCAGHRHFIHVFVGRAGATTGDGATADKPCTILH | not soluble |
| ESRSQISRRNQDMLLSVLDLEKVSVNDIMVPRNEIVGIDINDDWKSIVRQLTHSPHGRIVLYRDSLDDAISMLRVREAYRLMTEKKEFTKEIMLRAADEIYFVPEGTPLSTQLVKFQRNKKKVGLVVDEYGDIQGLVTVEDILEEIVGDFTTSMSPTLAEEVTPLNDGTVIIDGSANVREINKAFNWHLPEDEARTVNGII | soluble |
| MNHTLQFPKAPEHLLQALNEVIPKCKLMAQQLPETAISLWLIPPVFPTERLDDDIIRRIWSDTPYWIFCWASGLAMAQWLLAEPHHVKDKVVLDFGAGSGVVAIAAKMAGAKRVICCDIDETSLNACRENALLNNVELEYLNDLYLSESVDILLAADVLYDQSNRFFLDEFLKFAPEVWVADSRVKNFSHPGYIKIDERSATTWPDLDEAKEFRNVSFYKTLEHHHHHH | not soluble |
| MGSDKIHHHHHHMKIGTYQRLKAIKFLDFGVYLLEELTQEEVLLPKRYVPEGLEMGAMLEVFLYTDSEDRPVATTLKPKAILGEVAALEVVSVSERGCYLDLGIAKDIFMPCKNPYSFHEGQKVVVRLDLDKEKRLIARIGVKNYLQNAPVTLRPFTEVEILPFEWSTLGYGCMVNGRYFGMLFNNETFEKLPLGEARKGYIKAVRPDGKIDLSLRKSQGAGGLKEELEKLMKALQSAGGKLELHYDSDPDEISKITGLSKKGFKRALGEAIRSQKVELVAGKGIEQIR | not soluble |
| MSQYIYELEMKVRDYECDLQGIVNNANYQHYLEHTRHEFLTSVGVSFAALHEQGVDPVVARINMAFKTPLKSGDEFVSKLYMKKEGIKYVFYQDIFRKSDQKVVVKSTVETVCVVNGRLSNSELFDNVFAPYLK | not soluble |
| FLNTISTKDFKQKMADKTTGFVYVGRPTCEDCQAFQPILKKELEKRQPDQKMAYYNTDKASEKSRDDMIALLKKMDIDSVPTMVYLKDGKVASTYAATDEPAKLTNWMNKVSGEVSE | soluble |
| MCINIRLEKTRDIQSIHAITIAAFLDAPHTDHTEQFIVDALRDSGALSVSLIAEDSSKIIGHVALSPVTISDGSKDWYGLGPISVVPTDQNKGIGSKLMHAALRELNNLNANGCVLLGDPNYYRRFGFEPIGGLVLPDVPPEYFQATLLKGSYPTGVVTYHESFSAQS | not soluble |
| GLCDGHMHIESGMLTPAEFAAAVIPHGTTTMFTDPHEIANVLGLAGVRMMHDEALMQPVNIFTQMPSCAPSAPGLETTGYEITPEDVAEAMTWPGIIGLGEMMNFPGVTNADPKMLAEIAATQRAGKTVGGHYASPDLGPAFAAYVAGGPADDHEGTCEADAIARVRQGMRSMMRLGSAWYDVETQITAVTEKGLDPRNFILCTDDCHSATLVNDGHMNRVVRHAIACGCDPLIALQMATINTATHFGLERELGSTAPGRRADVILTSDLRDLPIELVIARGQVVAENGKIAVDCPHYDWPD | not soluble |
| VPTDCTENWVVVYLSGPLFFMSSERLKQTLLQLETKSGVVFSMRGVPSIDSTALDILEEFCLAAEGRGQQVQFAALQPEVEKMIRTIQGNQEKEYHFSVAEFLQTVHVA | not soluble |
| MGSDKIHHHHHHMLLHSAWPRLLCPSPKAKHLKDPAMFELDHDLAQDIVDRAMAILPCNVNVMDSQGLILGSGEPERINTRHEGAQLVLANGRIVELDTDAAKCLKGVQPGVNLPLMLDGRLMGVLGLTGDPQQVRTYGELVRMTAEMLLAQRNLQADQQWRRQRCDDLLALLLGGSGNSPRLLDEARQLGLKPQLPRIPCLFEITSGPPAEALAAWLMSRYPDSWCVSPARQSLLWCRPAGVALDELRLLERLQRHGWDIERLALGSAAQSLEQLRRGYRRVRDLLAYGREVLPSERLLSLQRYRLPALLWRHRNDDALDELLEPLQRIRAKDSSGQLLATLRAWCAHDGQSQSCADALGIHRNSLRYRLERIAELGEVDPLRLEGMLSLYLGLQLLPTD | not soluble |
| MTKALFFDIDGTLVSFETHRIPSSTIEALEAAHAKGLKIFIATGRPKAIINNLSELQDRNLIDGYITMNGAYCFVGEEVIYKSAIPQEEVKAMAAFCEKKGVPCIFVEEHNISVCQPNEMVKKIFYDFLHVNVIPTVSFEEASNKEVIQMTPFITEEEEKEVLPSIPTCEIGRWYPAFADVTAKGDTKQKGIDEIIRHFGIKLEETMSFGDGGNDISMLRHAAIGVAMGQAKEDVKAAADYVTAPIDEDGISKAMKHFGII | soluble |
| SKDCIIQRYKDGDVNNIYTANRNEEITIEEYKVFVNEACHPYPVILPDRSVLSGDFTSAYADDDESC | soluble |
| ALSGSSGYKFGVLAKIVNYMKTRHQRGDTHPLTLDEILDETQHLDIGLKQKQWLMTEALVNNPKIEVIDGKYAFKPKYNVR | soluble |
| MSSMEGKKVPQVTFRTRQGDKWVDVTTSELFDNKTVIVFSLPGAFTPTCSSSHLPRYNELAPVFKKYGVDDILVVSVNDTFVMNAWKEDEKSENISFIPDGNGEFTEGMGMLVGKEDLGFGKRSWRYSMLVKNGVVEKMFIEPNEPGDPFKVSDADTMLKYLAPQHQVQESISIFTKPGCPFCAKAKQLLHDKGLSFEEIILGHDATIVSVRAVSGRTTVPQVFIGGKHIGGSDDLEKYFA | soluble |
| MLSVRVAIVGGGLAGLYAAALLEARGVTDYVLLEARETFGGRIMSVPVAAEPDAQRDAAERFDLGATWFWPAMQPELLRVVTAFGVEAFEQYETGAMLVERARDQPAMRIDAGASMSGAWRMAGGMGALTDAISRRLDAARLRAGWRVQRLRKVDEGVDVEAEDGVGRARCWRAAQVLLAMPPRLAVRTVAFAPALPDVLALPWAACQTWMAPHAKYLAVYDMPFWREQGLSGGARSAAGPLAEIHDASGQQGGAALFGFLGVPAAARGRMAQADLRAACRAQLVRLFGERARWPRAEFLKDWADDVCTAVDADRCAQGSHAELPPALADAGAWKDRLIGIASEWSPAFGGYAAGAVDAARRGVEALLGSPDAGVPARRHQGRLWEAWRLEHHHHHH | soluble |
| HRIPAYTLTDQNGDAFKSTAYDSSFKVYDFVFTRCGSICPEMTTQMIRVQEAFKHDKDVVLISLTVDPEHDSSEVLQRYAKQYNAIPGKWYFLTGEKDTIYTLGQRQFFLTAKQNEEDLTDFLHSERIVLVDKNGWIRGYYTGTNEKDVDRLITELKVLQKIERDAKRK | not soluble |
| MPLALDDGDVNLSELRAFDLLGRCETGSIVNTVSLSSTGNYLAAGGFDHKVYYYDSRGTQLWNYTTGDIVYTVSISSDGSRIAAGSNDRKVYFFNREGELLWSRKTGGNINSVAVSSEGLYIATGGEDGKVYFLDKDGKLLWSFNSGDAVRSVAISRDGDYVLEHHHHHH | not soluble |
| MRIDILTLFPGMFSGVLNESILKKAQEKGAVDIRLIDFREFADNKHKTVDDYPYGGGAGMVLKPQPIFDAVEHVTAGSPGARIILLCPQGERYTQKKAEELAKETHLVLICGHYEGYDERIRQYLATDEISIGDYILTGGELGAMVIVDSVVRLLPGVLGNEASPVDDSFSSGLLEYPQYTRPADFRGMKVPDILLSGNHQLIAEWREKESLRRTFLRRPDLLDEYPLTDKQKQWLKEWEKERE | not soluble |
| MGSDKIHHHHHHMTDRVLILGGRGRIGSSVAQDLANHTQAQITITGRSAEFGKAVSLSSGGQVQFLVLDLVEVDKLQNAIANSNLVIHCAGPFHYRDTNVLETCIAQGVNYVDVSDHRSYTSKALNFSEQAAAAGVTAIINTGIFPGISNSMVRQGVEQFDKPENIHLSYLVSGSGGAGITVMRTTFLGLQYPFETWIDGKWQVIKPYSERELVEFPPPYGRSGVYWFDMPETFTLPKAFPSVKTVITKFGSVPDFYNHLTWIAAHIFPKWLMQRRYMIEFLSHVSHSMTDVTNNFSGIGVAVRSEVTGQKDGKTAVYCSTVVHENTALASGCGTGSIAQLLLEGKLKKPGVFAVEEALPTDLFEEVMQSRGIKINHSWL | not soluble |
| KKDFTWSSTVTFTANKEKIKSLIEGQDMMFNAKKGDMVFKVGEGVGSFYRYKVLGIWQYSEKETAALFGCEPGDIKLDLPSVKKDGNGYYYMNPEGERVDITAENPYGVRADYDRQVIGRNTPDWTLGFKNNFRYKDFDLSVFLYARWGQMMNYGSVIGKYSPNPDYNIPTYFTYYDKTIEADQDVLFYAIDKSKDRSAYEGYDSMYYVDGSFFKLKNVTLGYTLPGKLTKRFGISNLRVYATMTNLFTYSPNKYVKNYDPEMNGSINFPLSRDCIFGLNLTF | not soluble |
| MGSDKIHHHHHHMAKFIMVVGTSSNSGKTVLVSGICRMLSNKGYKVAPFKSQNMSLNSRVSVEDGEIAVAQYTQAMAARAEPSVHFNPILLKPKGNFVSQVIVHGNPYEDKDYNEYRSKKDDFLVKIKESIDYLDKNYDYVVIEGAGSCCEINLLNDDIANLKVAEIAGADAILVSDIDRGGVFASIYGTVQLLPENWKKLLKGFVINKFRGNIDVLKDGFEKIEELTNIPVIGTIPYDETLVLPEEDSQALDGKRVFGNLKSPIEVNVVKFSKIANFTDVDPFSSDCLMKYIDFNENITGDILILPGTRCSTVEMDLMKKYGMDKKILEFVENGGIVLGICGGYQALGKMLFDEDFSEGDVGTISGLGLFDMETTFGNKKAIKNSTGKISIFNQNFDVSGYELHEGYSVSNETPLISLSKGFGNCGDSYDGSFKMIGDSYIFGTYFHGILENFEFRNYLVNLARSKKNLSKIEDDTYAELFNENMDKLSKIIEENLDFSKIIG | not soluble |
| GMKQDSIITLHPDDRSEQTAEIMRRFNDVFQLHDPAALPELIAEECVIENTVPAPDGARHAGRQACVQLWSAIATQPGTRFDLEETFVAGDRATIRWRYWMADGNSVRGVNLMRVQDGRIVEAMGYVKG | soluble |
| MEKVNEILSQLTLEEKVKLVVGVGLPGLFGNPHSRVAGAAGETHPVPRVGLPAFVLADGPAGLRINPTRENDENTYYTTAFPVEIMLASTWNRELLEEVGKAMGEEVREYGVDVLLAPAMNIHRNPLCGRNFEYYSEDPVLSGEMASSFVKGVQSQGVGACIKHFVANNQETNRMVVDTIVSERALREIYLRGFEIAVKKSKPWSVMSAYNKLNGKYCSQNEWLLKKVLREEWGFEGFVMSDWYAGDNPVEQLKAGNDLIMPGKAYQVNTERRDEIEEIMEALKEGKLSEEVLDECVRNILKVLVNAPSFKNYRYSNKPDLEKHAKVAYEAGAEGVVLLRNEEALPLSENSKIALFGTGQIETIKGGTGSGDTHPRYAISILEGIKERGLNFDEELAKTYEDYIKKMRETEEYKPRRDSWGTIIKPKLPENFLSEKEIHKLAKKNDVAVIVISRISGEGYDRKPVKGDFYLSDDETDLIKTVSREFHEQGKKVIVLLNIGSPVEVVSWRDLVDGILLVWQAGQETGRIVADVLTGRINPSGKLPTTFPRDYSDVPSWTFPGEPKDNPQKVVYEEDIYVGYRYYDTFGVEPAYEFGYGLSYTTFEYSDLNVSFDGETLRVQYRIENTGGRAGKEVSQVYIKAPKGKIDKPFQELKAFHKTRLLNPGESEEVVLEIPVRDLASFNGEEWVVEAGEYEVRVGASSRNIKLKGTFSVGEERRFKP | soluble |
